Our source for the stoichiometry N values is paper PMC9860674.

The target in this assay is Tle3^AIEC (type VI lipase effector 3 of adherent-invasive Escherichia coli LF82) (Escherichia coli AIEC LF82). As to the kind of experiment: SEC; purified Tle3 and Tli3 mixed at a molar ratio of 1:1.3; Superdex 200 16/60 in Hepes 10 mM pH 6.8, NaCl 150 mM; apparent molecular mass 100 kDa against a theoretical 101.9 kDa. Background: Size exclusion chromatography separates by hydrodynamic size, large species first.

What is called stoichiometry N is the number of molecules, sites or subunits per partner or assembly. “Tli3^AIEC (type VI lipase immunity protein 3 of adherent-invasive Escherichia coli LF82) (natural protein)”: the stoichiometry N worked out at 1.
